Paper PMC12392098, “Predicting the DNA binding specificity of transcription factor mutants using family-level biophysically interpretable machine learning”

What was measured:
Details in all cases: protein: recombinant; tags: N-terminal 6xHis; mScarlet fusion; chain copies: 2; label: 32P (SRI primer strand); blunt
ASCL2 DBD R5K = ASCL2 DBD R5K (human, UniProt Q99929 50-102, R55K); experiment: EMSA; preferred over CACGTG probe; 32P EMSA: ~50 nM probe, 0.5/1/2 uM protein, 30 min, reagents as in Feng et al., gel at 4 C; fluorescent EMSA: 5x buffer (50 mM Tris pH 7.5, 250 mM NaCl, 5 mM MgCl2, 20% glycerol, 2.5 mM DTT, 2.5 mM EDTA, 250 ug/ml poly(dI-dC), 1 mg/ml BSA) used at 1x plus half volume protein dialysis buffer (20 mM HEPES pH 7.9, 200 mM NaCl, 10% glycerol, 2 mM MgCl2), gel 0.5x TBE at 4 C
ASCL2 DBD V13R = ASCL2 DBD V13R (human, UniProt Q99929 50-102, V63R); experiment: EMSA; preferred over CAGCTG probe; 32P EMSA: ~50 nM probe, 0.5/1/2 uM protein, 30 min, reagents as in Feng et al., gel at 4 C; fluorescent EMSA: 5x buffer (50 mM Tris pH 7.5, 250 mM NaCl, 5 mM MgCl2, 20% glycerol, 2.5 mM DTT, 2.5 mM EDTA, 250 ug/ml poly(dI-dC), 1 mg/ml BSA) used at 1x plus half volume protein dialysis buffer (20 mM HEPES pH 7.9, 200 mM NaCl, 10% glycerol, 2 mM MgCl2), gel 0.5x TBE at 4 C
ASCL2 DBD R5K+V13R = ASCL2 DBD R5K+V13R (human, UniProt Q99929 50-102, R55K;V63R); experiment: as above
ASCL2 DBD R5K+V13R, sequence (Q99929 50-102 R55K/V63R): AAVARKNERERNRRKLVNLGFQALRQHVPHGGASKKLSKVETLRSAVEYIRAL

ASCL2 DBD V13R, sequence (Q99929 50-102 V63R): as the sequence (Q99929 50-102 R55K/V63R) above, with K6R counted along it
ASCL2 DBD R5K, sequence (Q99929 50-102 R55K): as the sequence (Q99929 50-102 R55K/V63R) above, with R14V counted along it

B1: CAGCTG probe (dsDNA)
DNA 1: TAGCCAATAACTTCGTCCCTCAGCTGCATATAAGGAAGATCTAACCACCAATTTGG
DNA 2: CCAAATTGGTGGTTAGATCTTCCTTATATGCAGCTGAGGGACGAAGTTATTGGCTA
ASCL2 DBD R5K
  binding result: binds

B2: CACGTG probe (dsDNA)
DNA 1: TAGCCAATAACTTCGTCCCTCACGTGCATATAAGGAAGATCTAACCACCAATTTGG
DNA 2: CCAAATTGGTGGTTAGATCTTCCTTATATGCACGTGAGGGACGAAGTTATTGGCTA
ASCL2 DBD V13R
  binding result: binds
ASCL2 DBD R5K+V13R
  binding result: binds
